The source of these data is the Human Domainome abundance scans (Beltran et al. 2025).

Sequences and labels used below:
B1: Steroid hormone receptor ERR2, residues 100 to 176; numbered along this chain, O95718 (parent)
chain: KRLCLVCGDIASGYHYGVASCEACKAFFKRTIQGNIEYSCPATNECEITKRRRKSCQACRFMKCLKVGMLKEGVRLD

± gives the uncertainty stated by the source.

Variants of B1 are the subject of this series. The experiment in a line: abundance fitness (aPCA) (normalised: wild type 0, dead -1); higher = more abundant; growth selection in yeast, the domain comes from the species named. The conditions noted are these: Homo sapiens.
Consider E45V, for which the abundance fitness is -0.144 ± 0.047.

For E45S, the abundance fitness was -0.149 ± 0.058.

On to E45T, for which the abundance fitness was -0.209 ± 0.085. Turning to H15I, the abundance fitness was -0.115 ± 0.081. As for H15V, the abundance fitness was -0.369 ± 0.071.

In the case of H15D, the abundance fitness was -0.211 ± 0.1.

On to G34A, for which the abundance fitness came out at 0.135 ± 0.043. As to G34C, the abundance fitness was -0.227 ± 0.078. Take F28A: the abundance fitness was -0.321 ± 0.054. On to F28Y, for which the abundance fitness was -0.78 ± 0.2. Take R60A: the abundance fitness is -0.031 ± 0.047. Take R60Q: the abundance fitness is 0.173 ± 0.052. Take R60M: the abundance fitness is 0.108 ± 0.05. Take R60Y: the abundance fitness is 0.279 ± 0.072. Turning to R60C, the abundance fitness turned out to be 0.013 ± 0.066.

For C59H, the abundance fitness is -0.545 ± 0.18.

With C59L, the abundance fitness is -0.873 ± 0.11. On to C59W, for which the abundance fitness was -0.684 ± 0.11. C59N: the abundance fitness was -0.711 ± 0.24. For the variant C59Q, the abundance fitness is -0.891 ± 0.22. For the variant C59S, the abundance fitness is -0.887 ± 0.13. As to G13C, the abundance fitness was -0.947 ± 0.29.

As for G13T, the abundance fitness was -0.509 ± 0.17. As to G13M, the abundance fitness was -0.539 ± 0.19.

For G13L, the abundance fitness was -0.743 ± 0.12. Next, G13Y: -0.867 ± 0.33. As for N44C, the abundance fitness is -0.473 ± 0.13.

N44G: the abundance fitness is 0.117 ± 0.038.

As to N44L, the abundance fitness is -0.278 ± 0.059.

For N44R, the abundance fitness is 0.011 ± 0.038. On to T43A, for which the abundance fitness was 0.081 ± 0.046. Take T43F: the abundance fitness was -0.558 ± 0.14. In the case of N35G, the abundance fitness worked out at 0.271 ± 0.035. Next, N35S: -0.129 ± 0.053. N35R: the abundance fitness was -0.047 ± 0.038.

With N35E, the abundance fitness was determined as 0.157 ± 0.046. Next, N35K: 0.027 ± 0.055; F27N: -1.01 ± 0.27.

Turning to F27L, the abundance fitness is -0.204 ± 0.043. With S55L the figure was 0.341 ± 0.042. In the case of S55G, the abundance fitness came to 0.336 ± 0.039. S55D: the abundance fitness came out at 0.318 ± 0.071. With S55T the figure was 0.277 ± 0.058. As to S55C, the abundance fitness worked out at 0.393 ± 0.063.

Regarding K63R, the abundance fitness was -0.145 ± 0.041. K63W: the abundance fitness is -0.58 ± 0.079. For the variant K63C, the abundance fitness is -0.242 ± 0.077. Take K63M: the abundance fitness is -0.11 ± 0.06.

Turning to K63E, the abundance fitness is -0.596 ± 0.082.

For the variant K63T, the abundance fitness is -0.226 ± 0.068. As to S39P, the abundance fitness is 0.089 ± 0.067. S39T: the abundance fitness turned out to be 0.254 ± 0.053. Turning to S39Y, the abundance fitness is 0.283 ± 0.089. As for S39G, the abundance fitness was found to be 0.19 ± 0.036. With S39A, the abundance fitness was 0.319 ± 0.038. With S39E, the abundance fitness worked out at 0.303 ± 0.043. Take V18W: the abundance fitness was -0.657 ± 0.094. Turning to V18M, the abundance fitness came to 0.218 ± 0.42. With V18A, the abundance fitness was -0.26 ± 0.072. Take V18D: the abundance fitness is -0.471 ± 0.18.

As for V18R, the abundance fitness is -0.384 ± 0.07.

For G68Q, the abundance fitness was -0.944 ± 0.2. In the case of G68P, the abundance fitness was -0.894 ± 0.23.

In the case of G68N, the abundance fitness was -0.753 ± 0.33. Consider G68M, for which the abundance fitness was -0.851 ± 0.19. For the variant G8Y, the abundance fitness was -0.132 ± 0.12. Turning to G8C, the abundance fitness is -0.381 ± 0.1.

Regarding G8T, the abundance fitness was -0.077 ± 0.061. Next, G8D: -0.096 ± 0.092. V6N: the abundance fitness was -0.826 ± 0.2.

Regarding V6L, the abundance fitness was -0.836 ± 0.11. For V6H, the abundance fitness is -1.18 ± 0.48. V6T: the abundance fitness is -0.51 ± 0.1. On to C7I, for which the abundance fitness is -1.05 ± 0.25. On to C7Q, for which the abundance fitness is -0.918 ± 0.16. With C7F the figure was -0.362 ± 0.12; with C7H, -1 ± 0.28; with I36L, -0.162 ± 0.048. For the variant I36Q, the abundance fitness was -0.16 ± 0.064. As for I36G, the abundance fitness was -0.273 ± 0.041. For the variant G73F, the abundance fitness was -0.369 ± 0.14. Next, G73S: -0.031 ± 0.054. Take G73C: the abundance fitness is -0.126 ± 0.084. Take G73T: the abundance fitness came to 0.002 ± 0.063. With D77F the figure was -0.363 ± 0.22; with D77G, -0.194 ± 0.064. D77I: the abundance fitness was -0.572 ± 0.19. L3M: the abundance fitness was -0.1 ± 0.073. For I32E, the abundance fitness was -0.148 ± 0.053. For the variant I32P, the abundance fitness was -0.589 ± 0.16.

I32S: the abundance fitness was -0.184 ± 0.059.

I10V: the abundance fitness came to 0.242 ± 0.041. In the case of I10F, the abundance fitness is 0.056 ± 0.091. With I10L, the abundance fitness was -0.139 ± 0.056. With I10E, the abundance fitness is 0.045 ± 0.051. Regarding I10K, the abundance fitness was 0.037 ± 0.06. M62A: the abundance fitness came to 0.013 ± 0.044.

For M62E, the abundance fitness worked out at 0.086 ± 0.05. With M62W, the abundance fitness was -0.136 ± 0.051.

Turning to M62G, the abundance fitness is -0.059 ± 0.039. As for M62Q, the abundance fitness worked out at 0.04 ± 0.057. Next, M62T: 0.106 ± 0.059; M62I: -0.148 ± 0.087; A11K: -0.424 ± 0.077.

On to A11H, for which the abundance fitness is -0.691 ± 0.21. A11V: the abundance fitness was -0.289 ± 0.063. For A11G, the abundance fitness is -0.013 ± 0.043. Take A11I: the abundance fitness was -0.377 ± 0.14. Take A11Y: the abundance fitness is -0.128 ± 0.092. For A11N, the abundance fitness is -0.153 ± 0.099. For E47V, the abundance fitness was -0.14 ± 0.058. Take E47F: the abundance fitness was -0.354 ± 0.13. With E47M the figure was -0.592 ± 0.15. For the variant E47D, the abundance fitness was 0.038 ± 0.082. Take E47I: the abundance fitness is -0.476 ± 0.16. With E47N the figure was -0.09 ± 0.12; with E47Y, -0.184 ± 0.12. With E47T the figure was -0.112 ± 0.087. With Y16E, the abundance fitness is -0.06 ± 0.055. Next, Y16N: -0.093 ± 0.069; Y16W: -0.103 ± 0.074; Q57A: -0.018 ± 0.046. Next, Q57R: -0.17 ± 0.042; Q57F: -0.243 ± 0.089; Q57S: -0.125 ± 0.046. In the case of D9S, the abundance fitness was -0.36 ± 0.069. Turning to D9M, the abundance fitness was -0.216 ± 0.074. Take D9R: the abundance fitness is -0.508 ± 0.066.

On to K50F, for which the abundance fitness worked out at 0.047 ± 0.07. As to K50D, the abundance fitness was -0.055 ± 0.093. As to K50E, the abundance fitness was 0.224 ± 0.088. Next, K50Q: 0.142 ± 0.085; K50G: -0.102 ± 0.091. For the variant P41Y, the abundance fitness was 0.018 ± 0.069. As to P41W, the abundance fitness is -0.253 ± 0.065.

Turning to P41D, the abundance fitness was determined as 0.213 ± 0.059. Take P41L: the abundance fitness was -0.134 ± 0.045. Regarding P41R, the abundance fitness was -0.158 ± 0.042. With G17Q the figure was -0.748 ± 0.11.

As to G17A, the abundance fitness was -0.075 ± 0.045.

As to G17P, the abundance fitness was -0.416 ± 0.093. For G17H, the abundance fitness is -0.356 ± 0.19.

Turning to R51Q, the abundance fitness was 0.119 ± 0.1. Consider R51E, for which the abundance fitness is 0.152 ± 0.12.

On to R51M, for which the abundance fitness came to 0.173 ± 0.1.

Regarding R51T, the abundance fitness is -0.04 ± 0.064. Next, R51G: 0.033 ± 0.11. On to R51H, for which the abundance fitness is -0.08 ± 0.084. Turning to R51S, the abundance fitness is -0.14 ± 0.066. In the case of K1H, the abundance fitness was -0.525 ± 0.29. With K1F, the abundance fitness was -0.641 ± 0.23. Consider C4H, for which the abundance fitness was -0.956 ± 0.29. For the variant C4S, the abundance fitness was -0.824 ± 0.11.

Take C4W: the abundance fitness was -0.934 ± 0.15. In the case of C4F, the abundance fitness is -1.09 ± 0.37. In the case of C4R, the abundance fitness was -0.792 ± 0.094. As for A26S, the abundance fitness was -0.338 ± 0.063. Take A26E: the abundance fitness is 0.162 ± 0.048. On to A26N, for which the abundance fitness was -0.504 ± 0.17.

Take A26Y: the abundance fitness was -0.561 ± 0.17. Regarding A26Q, the abundance fitness stood at 0.051 ± 0.05.

T49P: the abundance fitness is -0.223 ± 0.088. With T49A the figure was 0.189 ± 0.055; with T49G, -0.041 ± 0.059. Take T49E: the abundance fitness is -0.003 ± 0.095.

Consider T49K, for which the abundance fitness is -0.035 ± 0.099. With T49S the figure was -0.164 ± 0.071.
